This data set concerns the target T1, PBP2a (penicillin binding protein 2a) (Staphylococcus aureus …, UniProt Q53707 25-668).
T1 sequence: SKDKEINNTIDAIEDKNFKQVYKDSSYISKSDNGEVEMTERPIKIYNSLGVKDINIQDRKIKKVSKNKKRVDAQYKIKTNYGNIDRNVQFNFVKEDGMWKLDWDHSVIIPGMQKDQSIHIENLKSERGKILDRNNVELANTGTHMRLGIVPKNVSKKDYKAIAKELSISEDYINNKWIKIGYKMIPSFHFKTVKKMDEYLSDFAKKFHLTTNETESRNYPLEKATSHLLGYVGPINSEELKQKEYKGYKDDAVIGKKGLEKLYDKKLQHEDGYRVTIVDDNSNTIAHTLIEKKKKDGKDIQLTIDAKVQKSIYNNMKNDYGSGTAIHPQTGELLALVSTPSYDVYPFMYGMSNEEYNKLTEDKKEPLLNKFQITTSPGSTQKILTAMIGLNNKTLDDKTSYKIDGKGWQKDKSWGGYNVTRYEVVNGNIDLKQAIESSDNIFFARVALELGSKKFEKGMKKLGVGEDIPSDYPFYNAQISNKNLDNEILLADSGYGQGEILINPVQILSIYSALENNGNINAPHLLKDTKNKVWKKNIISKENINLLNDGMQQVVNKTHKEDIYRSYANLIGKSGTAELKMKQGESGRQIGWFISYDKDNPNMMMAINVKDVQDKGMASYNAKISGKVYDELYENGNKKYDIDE
The data set can be described thus: fluorescence dequenching (FAM/BHQ hairpin opening); Binding-assay buffer not stated; amplification assay in PBS, room temperature, 60 min, 100 nM H1. The note with it: label: FAM and BHQ at the two termini.

B1: H1 probe (allosteric hairpin with PBP2a aptamer section d) (structured_DNA)
DNA: CACCCCACCTCGCTCCCGTGACACTAATGCTATTTTTTTTTATTTCTTTATCCTCAGCTTAGTGTCACTAAGC
As for B1, the binding result was “binds”.

The values above are taken from article PMC11016754, “Allosteric Probe-Based Colorimetric Assay for Direct Identification and Sensitive Analysis of Methicillin Resistance of Staphylococcus aureus”.
